B1: altORF-009 (peptide)
peptide: ALLPHAPEAV
notes: also called ALLPHAPEAV
B2: altORF-029 (peptide)
peptide: VVLPIVITL
notes: also called VVLPIVITL
B3: altORF-034 (peptide)
peptide: FQVTRTTGV
notes: also called FQVTRTTGV
B4: altORF-011 (peptide)
peptide: FLDEGSLLRL
notes: also called FLDEGSLLRL
B5: NUDCD2-001 (peptide)
peptide: KLLDFSTRI
notes: also called KLLDFSTRI
B6: altORF-030 (peptide)
peptide: VLSVSAVLGA
notes: also called VLSVSAVLGA
B7: altORF-014 (peptide)
peptide: ALLDAEQSPVAL
notes: also called ALLDAEQSPVAL
B8: altORF-008 (peptide)
peptide: SLLDKLSGI
notes: also called SLLDKLSGI
B9: altORF-019 (peptide)
peptide: FVFISPSFL
notes: also called FVFISPSFL
B10: altORF-018 (peptide)
peptide: VLISLPGKV
notes: also called VLISLPGKV
B11: altORF-010 (peptide)
peptide: HLDSMNVSI
notes: also called HLDSMNVSI
B12: altORF-027 (peptide)
peptide: LLWEFPSMA
notes: also called LLWEFPSMA
B13: altORF-020 (peptide)
peptide: SLYDVPVGA
notes: also called SLYDVPVGA
B14: altORF-026 (peptide)
peptide: SQLEKPETA
notes: also called SQLEKPETA
B15: altORF-013 (peptide)
peptide: NLVMPLLHI
notes: also called NLVMPLLHI
B16: altORF-032 (peptide)
peptide: LLNVEPAGA
notes: also called LLNVEPAGA
B17: altORF-024 (peptide)
peptide: KLWTSLVNL
notes: also called KLWTSLVNL
B18: altORF-033 (peptide)
peptide: VLLNSNYPV
notes: also called VLLNSNYPV
B19: altORF-023 (peptide)
peptide: ISVLNLSAI
notes: also called ISVLNLSAI
B20: altORF-012 (peptide)
peptide: LLIEVSEEL
notes: also called LLIEVSEEL
B21: altORF-017 (peptide)
peptide: MLLPWLPKL
notes: also called MLLPWLPKL
B22: altORF-022 (peptide)
peptide: TLTSLNILL
notes: also called TLTSLNILL
B23: altORF-031 (peptide)
peptide: FASERPPSV
notes: also called FASERPPSV
B24: altORF-028 (peptide)
peptide: LLRLTLLPL
notes: also called LLRLTLLPL
B25: altORF-025 (peptide)
peptide: IAAGVPNTDA
notes: also called IAAGVPNTDA
B26: altORF-015 (peptide)
peptide: VLWDLRPSSLI
notes: also called VLWDLRPSSLI
B27: COLPDG-001 (peptide)
peptide: ALLDVLVKL
notes: also called ALLDVLVKL
B28: altORF-001 (peptide)
peptide: FLLVPSPIWQL
notes: also called FLLVPSPIWQL
B29: altORF-021 (peptide)
peptide: GLEVLDALL
notes: also called GLEVLDALL
B30: altORF-016 (peptide)
peptide: KMMTFFQGL
notes: also called KMMTFFQGL

What follows are binders tested against T1, HLA-A*02:01 (human) (assay: UV-ligand exchange + anti-β2m ELISA; exchange yield grade: ≥10% +, ≥20% ++, ≥50 +++, ≥75% ++++).
T1 construct: captured on streptavidin plates, detected with anti-β2m; also called peptide-receptive MHC molecules; MHC class I
Experimental: The individual peptide-MHC complexes were produced by UV-ligand exchange, where a UV-sensitive peptide is cleaved upon UV-irradiation and exchanged with the peptide of interest as analyzed. Only peptide candidates that can effectively bind and stabilize the peptide-receptive MHC molecules prevent dissociation of the MHC complexes. To determine the yield of the exchange reaction, an ELISA was performed based on the detection of the light chain (β2m) of stabilized MHC complexes. The assay was performed as generally described in Rodenko et al. (Rodenko et al., 2006).
96 well MAXISorp plates (NUNC) were coated over night with 2 μg/ml streptavidin in PBS at room temperature, washed 4× and blocked for 1 h at 37° C. in 2% BSA containing blocking buffer. Refolded HLA-A*02:01/MLA-001 monomers served as standards, covering the range of 15-500 ng/ml. Peptide-MHC monomers of the UV-exchange reaction were diluted 100 fold in blocking buffer. Samples were incubated for 1 h at 37° C., washed four times, incubated with 2 μg/ml HRP conjugated anti-β2m for 1 h at 37° C., washed again and detected with TMB solution that is stopped with […]. Absorption was measured at 450 nm. Candidate peptides that show a high exchange yield (preferably higher than 50%, most preferred higher than 75%) are generally preferred for a generation and production of antibodies or fragments thereof, and/or T cell receptors or fragments thereof, as they show sufficient avidity to the MHC molecules and prevent dissociation of the MHC complexes.

Binder | peptide exchange yield
B1 | 50 to 75%
B2 | ≥ 75%
B3 | ≥ 75%
B4 | ≥ 75%
B5 | ≥ 75%
B6 | 50 to 75%
B7 | ≥ 75%
B8 | ≥ 75%
B9 | 50 to 75%
B10 | 20 to 50%
B11 | ≥ 75%
B12 | ≥ 75%
B13 | ≥ 75%
B14 | 50 to 75%
B15 | 20 to 50%
B16 | ≥ 75%
B17 | ≥ 75%
B18 | ≥ 75%
B19 | 20 to 50%
B20 | ≥ 75%
B21 | ≥ 75%
B22 | ≥ 75%
B23 | ≥ 75%
B24 | 20 to 50%
B25 | 20 to 50%
B26 | ≥ 75%
B27 | ≥ 75%
B28 | ≥ 75%
B29 | 20 to 50%
B30 | ≥ 75%

From patent US20230241113A1 (IMMATICS BIOTECHNOLOGIES, published 2023)
